The values that follow come from patent US20110294738A1, “PTHR1 RECEPTOR COMPOUNDS” (priority 2008, published 2011).

* marks the point of attachment. Palmitoyl = CCCCCCCCCCCCCCCC(=O)*

B1: Compound 78 (peptide)
peptide: Palmitoyl-TNAGRSDTAQQYRKLL-NH2
SMILES: CCCCCCCCCCCCCCCC(=O)N[C@H](C(=O)N[C@@H](CC(N)=O)C(=O)N[C@@H](C)C(=O)NCC(=O)N[C@@H](CCCNC(=N)N)C(=O)N[C@@H](CO)C(=O)N[C@@H](CC(=O)O)C(=O)N[C@H](C(=O)N[C@@H](C)C(=O)N[C@@H](CCC(N)=O)C(=O)N[C@@H](CCC(N)=O)C(=O)N[C@@H](Cc1ccc(O)cc1)C(=O)N[C@@H](CCCNC(=N)N)C(=O)N[C@@H](CCCCN)C(=O)N[C@@H](CC(C)C)C(=O)N[C@@H](CC(C)C)C(N)=O)[C@@H](C)O)[C@@H](C)O
B2: Compound 77 (peptide)
peptide: Palmitoyl-TNAGRADTRQQYRKLL-NH2
SMILES: CCCCCCCCCCCCCCCC(=O)N[C@H](C(=O)N[C@@H](CC(N)=O)C(=O)N[C@@H](C)C(=O)NCC(=O)N[C@@H](CCCNC(=N)N)C(=O)N[C@@H](C)C(=O)N[C@@H](CC(=O)O)C(=O)N[C@H](C(=O)N[C@@H](CCCNC(=N)N)C(=O)N[C@@H](CCC(N)=O)C(=O)N[C@@H](CCC(N)=O)C(=O)N[C@@H](Cc1ccc(O)cc1)C(=O)N[C@@H](CCCNC(=N)N)C(=O)N[C@@H](CCCCN)C(=O)N[C@@H](CC(C)C)C(=O)N[C@@H](CC(C)C)C(N)=O)[C@@H](C)O)[C@@H](C)O
B3: Compound 76 (peptide)
peptide: Palmitoyl-TNAGASDTRQQYRKLL-NH2
SMILES: CCCCCCCCCCCCCCCC(=O)N[C@H](C(=O)N[C@@H](CC(N)=O)C(=O)N[C@@H](C)C(=O)NCC(=O)N[C@@H](C)C(=O)N[C@@H](CO)C(=O)N[C@@H](CC(=O)O)C(=O)N[C@H](C(=O)N[C@@H](CCCNC(=N)N)C(=O)N[C@@H](CCC(N)=O)C(=O)N[C@@H](CCC(N)=O)C(=O)N[C@@H](Cc1ccc(O)cc1)C(=O)N[C@@H](CCCNC(=N)N)C(=O)N[C@@H](CCCCN)C(=O)N[C@@H](CC(C)C)C(=O)N[C@@H](CC(C)C)C(N)=O)[C@@H](C)O)[C@@H](C)O
B4: Compound 6 (peptide)
peptide: Palmitoyl-YFRRLHSTRNYIH-NH2
SMILES: CCCCCCCCCCCCCCCC(=O)N[C@@H](Cc1ccc(O)cc1)C(=O)N[C@@H](Cc1ccccc1)C(=O)N[C@@H](CCCNC(=N)N)C(=O)N[C@@H](CCCNC(=N)N)C(=O)N[C@@H](CC(C)C)C(=O)N[C@@H](Cc1c[nH]cn1)C(=O)N[C@@H](CO)C(=O)N[C@H](C(=O)N[C@@H](CCCNC(=N)N)C(=O)N[C@@H](CC(N)=O)C(=O)N[C@@H](Cc1ccc(O)cc1)C(=O)N[C@H](C(=O)N[C@@H](Cc1c[nH]cn1)C(N)=O)[C@@H](C)CC)[C@@H](C)O
B5: Compound 105 (peptide)
peptide: Palmitoyl-NGEVQAEIKKSWSRWTLALD-NH2
SMILES: CCCCCCCCCCCCCCCC(=O)N[C@@H](CC(N)=O)C(=O)NCC(=O)N[C@@H](CCC(=O)O)C(=O)N[C@H](C(=O)N[C@@H](CCC(N)=O)C(=O)N[C@@H](C)C(=O)N[C@@H](CCC(=O)O)C(=O)N[C@H](C(=O)N[C@@H](CCCCN)C(=O)N[C@@H](CCCCN)C(=O)N[C@@H](CO)C(=O)N[C@@H](Cc1c[nH]c2ccccc12)C(=O)N[C@@H](CO)C(=O)N[C@@H](CCCNC(=N)N)C(=O)N[C@@H](Cc1c[nH]c2ccccc12)C(=O)N[C@H](C(=O)N[C@@H](CC(C)C)C(=O)N[C@@H](C)C(=O)N[C@@H](CC(C)C)C(=O)N[C@@H](CC(=O)O)C(N)=O)[C@@H](C)O)[C@@H](C)CC)C(C)C

The assay deals with PTHR1 receptor.
Chain of PTHR1 receptor (P25961 whole entry): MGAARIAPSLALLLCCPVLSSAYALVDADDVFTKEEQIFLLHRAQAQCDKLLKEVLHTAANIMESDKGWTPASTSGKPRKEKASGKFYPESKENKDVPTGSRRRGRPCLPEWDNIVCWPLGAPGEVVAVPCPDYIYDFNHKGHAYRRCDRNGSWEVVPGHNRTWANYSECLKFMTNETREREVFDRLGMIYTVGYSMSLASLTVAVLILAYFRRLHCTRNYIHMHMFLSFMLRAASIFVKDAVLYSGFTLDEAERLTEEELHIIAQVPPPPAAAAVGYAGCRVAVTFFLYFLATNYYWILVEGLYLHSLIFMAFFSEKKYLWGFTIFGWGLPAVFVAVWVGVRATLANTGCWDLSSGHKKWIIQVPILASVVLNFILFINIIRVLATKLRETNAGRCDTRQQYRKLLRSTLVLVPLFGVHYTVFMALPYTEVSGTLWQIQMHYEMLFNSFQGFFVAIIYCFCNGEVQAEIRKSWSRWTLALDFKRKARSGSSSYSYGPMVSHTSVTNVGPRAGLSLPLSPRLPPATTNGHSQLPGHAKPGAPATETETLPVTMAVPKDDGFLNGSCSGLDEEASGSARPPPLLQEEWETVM
Regarding B1, the Fold Shift of EC50 was 12.7 fold and the Inhibition of Maximal Response is -29.2%.
On the same counts, the results for B2 are 6.9 fold and 9.9%.
The like results for B3 were, in that order, 16.9 fold and 2.4%.
On the same counts, the results for B4 are 1 fold and 10.8%.
Turning to B5, the Fold Shift of EC50 worked out at 1.1 fold and the Inhibition of Maximal Response came to 34%.
